Source: article PMC3722453, “N-truncated amyloid β (Aβ) 4-42 forms stable aggregates and induces acute and long-lasting behavioral deficits” (Acta Neuropathologica, 2013)

Columns and labels:
[1] = 1D 1H NMR monomer consumption assay; format: physicochemical; conditions: 40 μM peptide, phosphate buffer 20 mM pH 7.2, 25 mM NaCl; after 14 h of incubation at 37 °C; methyl and aromatic 1H signals normalised to DSS
Protocol: 1D ^1H NMR spectra of the five different Aβ peptides were measured at 5 °C at 400 MHz ^1H Larmor frequency. The samples contained 40-μM peptide in phosphate buffer (20 mM, pH 7.2) with 25-mM NaCl. The aggregation propensity of the Aβ variants were then studied through real-time 1D ^1H NMR experiments at 37 °C continued for 14 h at 1-h intervals. The integrated intensity of ^1H peaks at two regions (0.50–1.05 ppm, 6.50–8.00 ppm), after chemical shift using DSS ([…]) as a reference standard, was then calculated. After normalization by the integrated intensity of the DSS peak at 0 ppm, the relative intensity of the peptide ^1H peaks was used to probe peptide monomer consumption during the early phases of peptide aggregation.

[2] = Dynamic light scattering (DLS) of peptide supernatants; format: physicochemical; conditions: DLS at 20 °C, 0.2 mg/mL, phosphate buffer 20 mM pH 7.4, 25 mM NaCl; after 24 h at 37 °C without agitation; supernatant after 16,000g 15 min
Protocol: DLS experiments were performed at 20 °C on a DynaPro Titan (Wyatt Technology Corp., CA) instrument with a scattering angle of 90°. The samples were centrifuged at 16,000g for 15 min, and then the supernatant was taken for DLS measurements. The “monomeric” samples were prepared freshly in phosphate buffer (20 mM, pH 7.4) containing 25 mM NaCl at a peptide concentration of 0.2 mg/mL. The aggregated samples were prepared after incubation at 37 °C for 24 h, without further promotion of aggregation by agitation. The size distribution was determined by a constrained regularization method. The reported scattering intensities are from three separate measurements of the same sample.

[3] = Far-UV circular dichroism (CD) spectroscopy; format: physicochemical; conditions: 0.2 mg/mL, phosphate buffer 20 mM pH 7.2, 20 °C, monomeric state
Protocol: Samples of 0.2 mg/mL peptide concentration in phosphate buffer (20 mM, pH 7.2) were prepared. The far-UV CD measurements were conducted on a Chirascan CD spectrometer, with a 1-mm path length quartz cell, 1-nm bandwidth and 8-s collection time for each point at 0.5 nm steps between 190 and 260 nm. The buffer spectrum was also measured and subtracted from the spectra of Aβ peptides. The temperature-dependence of secondary structure was studied through far-UV measurements at three different temperatures, 20, 30 and 40 °C. The reversibility of temperature-induced changes was checked with an additional CD spectrum measured after cooling down from 40 to 20 °C. The CD spectrum of the cooled sample was taken after 5 min of equilibration at 20 °C. The 0.2 mg/mL Aβ samples in phosphate buffer (20 mM, pH 7.2) containing 25 mM NaCl were incubated at 37 °C for 3 days with gentle stirring.

[4] = SDS-PAGE Western blot of Aβ peptides (stable aggregates); format: physicochemical; conditions: 1 μg peptide, reducing conditions, antiserum 24311; for higher molecular weight oligomers on SDS-PAGE after aging: after 1 and 3 days of aging
Protocol: Lyophilized Aβ peptides were dissolved in 10-mM NaOH at a concentration of 1 mg/mL, aliquoted in 50 μL volumes, flash-frozen in liquid nitrogen and stored at −80 °C until use. For Western blot analysis under reducing conditions, 1 μg peptides were loaded on 4–12 % VarioGels (Anamed), transferred to 0.45 μm nitrocellulose membranes and detected using the primary antiserum 24311 (pan-Aβ, 1:500) or monoclonal antibody 4G8 (Aβ17-24, Signet; 1:500). For Western blotting of mouse brain, whole brain SDS lysates were used. Running and transfer buffers were applied according to the manufacturer. The blots were developed using enhanced chemiluminescence according to the manufacturer (Roth). Horse radish conjugated swine anti-rabbit antibody was used as a secondary antibody (1:3,000, Dianova).

[5] = tested on: primary cortical neurons; experiment: Calcein-AM cell viability assay; format: cell-based, Wistar rat; conditions: for effect on cell viability: 24 h incubation with freshly prepared peptide at different concentrations, calcein-AM fluorescence; for toxicity profile compared to vehicle control: ANOVA with Bonferroni multiple comparisons
Protocol: Cortical neurons from embryonic day 16–17 Wistar rat fetuses were prepared as previously described. In brief, dissociated cortical cells were plated at 50,000 cells/well in 48-well plates precoated with 1.5 mg/mL polyornithine (Sigma). Cells were cultured in a chemically defined Dulbecco’s Modified Eagle’s/F12 medium free of serum (Gibco) and supplemented with hormones, proteins and salts. […] At 6 DIV, the medium was removed and cortical neurons were incubated for 24 h with vehicle (cell culture medium) or Aβ peptides (dissolved in cell culture medium) at the indicated concentrations.
Following a 24-h incubation of primary cortical neurons with Aβ peptides, cell viability was determined using a calcein-AM assay (Invitrogen, Molecular Probes). Briefly, cells were washed twice with PBS and incubated to protect from light for 30 min at room temperature in the presence of 2 μM calcein-AM solution prepared in PBS. Cells were then washed twice with PBS and incubated for 15 min at room temperature in PBS containing 1 % Triton X-100 (v/v). The level of calcein fluorescence was monitored by fluorescence emission at 530 nm after exciting at 485 nm, using a Fluostar microplate reader (BMG-Labtechnologies, France).

[6] = tested on: C57BL/6 J wildtype mice; experiment: Y-maze working memory after intracerebroventricular injection of soluble Aβ; format: in vivo, mouse; conditions: 50 pmol in 1 μL icv, male C57BL/6 J mice 12-week old, n = 6 per group, Y-maze on day 4, 5-min session
Protocol: Male C57BL/6 J mice (12-week old, Janvier, Le Genest-St-Isle, France; n = 6 per treatment group) were housed five to six per cage with free access to food and water, and were kept in a constant environment (22 ± 2 °C, 50 ± 5 % humidity, 12-h light cycle). Under anesthetization, freshly prepared Aβ peptides (50 pmol in 1 μL; 0.1 M phosphate-buffered saline (pH 7.4)) or vehicle (0.1 M phosphate-buffered saline) were injected into the right ventricle, with stereotaxic coordinates from the bregma (AP −0.22, L −1.0 and D 2.5 in mm). Intracerebroventricular (icv) injections were made using a 10-μl Hamilton microsyringe fitted with a 26-gauge needle. Four days following icv infusion of Aβ peptides, working memory was assessed using the Y-maze test.
Immediate spatial working memory performance in male C57BL/6 J wildtype mice (12-week old, Janvier, Le Genest-St-Isle, France; n = 6 per treatment group) was assessed by recording spontaneous alternation behavior in a Y-maze as described previously. The Y-maze task was carried out on day 4 after soluble Aβ application. The maze was made of opaque plexiglas and each arm was 40-cm long, 16-cm high, 9-cm wide and positioned at equal angles. Mice were placed at the end of one arm and allowed to move freely through the maze during a 5-min session. The series of arm entries were recorded visually and arm entry was considered to be completed when the hind paws of the mouse were completely placed in the arm. Alternation was defined as successive entries into the three arms on overlapping triplet sets. The percentage alternation was calculated as the ratio of actual (total alternations) to possible alternations (defined as the number of arm entries minus two), multiplied by 100.

[7] = Transmission electron microscopy (TEM) of aggregates; format: physicochemical; conditions: 0.1 mg/mL, HEPES 25 mM pH 7.4, 50 mM NaCl, 3 days at 37 °C with gentle stirring
Protocol: Peptide samples of 0.1 mg/mL concentration in HEPES buffer (25 mM, pH 7.4, 50 mM NaCl) were incubated at 37 °C with gentle stirring. After 3 days of incubation, samples were diluted, deposited onto carbon-coated copper mesh grids and negatively stained with 2 % (w/v) uranyl acetate. The excess stain was washed away, and the sample grids were allowed to air-dry. The samples were then viewed with a 120-kV transmission electron microscope.

Row | Substance | loss of initial 1H NMR signal intensity (monomer consumption) [1] | hydrodynamic radius of small (main) aggregates [2] | secondary structure by far-UV CD spectrum [3] | higher molecular weight oligomers on SDS-PAGE after aging [4] | species on SDS-PAGE, freshly dissolved peptides [4] | effect on cell viability [5] | toxicity compared with Aβ4-40 at 5 μM ([5]; 24 h incubation, 5 μM, calcein-AM) | toxicity profile compared to vehicle control ([5]; 24 h incubation, calcein-AM) | working memory (Y-maze alternation rate) [6] | aggregate morphology by TEM [7]
1 | Aβ1-42: full-length amyloid β 1-42, purchased from PSL [reference compound] | around 5% | 5–10 nm | unstructured in the monomeric state | higher molecular weight oligomers in addition | monomers and aggregates most likely representing trimer/tetramers | dose-dependent reduction in cell viability | more potent than Aβ4-40 | strongest toxic effect | performed at chance level and showed a significant and robust deficit in working memory | –
2 | Aβ4-40: amyloid β (Aβ) variant, N-truncated, purchased from PSL | around 5% | – | unstructured in the monomeric state | not | monomers, dimers but no other oligomers | dose-dependent reduction in cell viability | – | – | significantly reduced | clumps of fibrillar aggregates
3 | Aβ4-38: amyloid β (Aβ) variant, N-truncated, purchased from PSL | rose slightly in intensity | – | unstructured in the monomeric state | not | monomers, dimers but no other oligomers | dose-dependent reduction in cell viability | – | only toxic at 10 μM | behaved like vehicle controls and learned well | clumps of fibrillar aggregates
